Eight molecules from US9688719B2, “Glycogen synthase kinase-3 inhibitors” (Ramot at Tel-Aviv University Ltd., priority 2011, dated 2017) can be followed below.

Square brackets hold non-standard residues; d marks the D form. Ends that are not written are not given here. * marks the point of attachment. Myristoyl = CCCCCCCCCCCCCC(=O)*; pS = N[C@@H](COP(=O)(O)O)C(=O)O

Assay [1] relates to GSK-3β mutants Q89A, N95A, R92A, K94A, F93Y and TM (91-93). The experiment in a line: In vitro kinase assay, inhibition of other GSK-3β mutants. Particulars: data not shown. It counts as biochemical, human. The procedure:
(§1) HEK-293 cells were grown in Dulbecco's Modified Eagle's Medium (DMEM), supplemented with 10% fetal calf serum (FCS), 2 mM glutamine, 100 units/ml penicillin, and 100 μg/ml streptomycin. HEK-293 cells were transiently transfected with indicated constructs, using calcium phosphate method as described [Ilouz et al. (2006) supra]. Cells were lysed in ice-cold buffer G (20 mM Tris-HCl, pH 7.5, 10 mM β-glycerophosphate, 10% glycerol, 1 mM EGTA, 1 mM EDTA, 50 mM NaF, 5 mM sodium pyrophosphate, 0.5 mM orthovanadate, 1 mM benzamidine, 10 μg/ml leupeptin, 5 μg/ml aprotinin, 1 μg/ml pepstatin, and 0.5% Triton X100). Cell extracts were centrifuged for 30 minutes at 15,000×g. […]
(§2) The GSK-3β proteins (WT or mutants) were incubated with indicated substrate in a reaction mixture (50 mM Tris-HCl, pH 7.3, 10 mM magnesium acetate, and 0.01% β-mercaptoethanol) together with 100 μM ^32P[γ-ATP] […] Reactions were stopped by spotting on p81 paper (Whatman) washed with phosphoric acid, and counted for radioactivity as previously described [Ilouz et al. (2006) supra]. In assays from cells overexpressing GSK-3 proteins, the activity of the endogenous GSK-3 that was determined in cells transfected with the pCMV4 vector was subtracted from the activity values obtained for WT and mutants. […]

The target in assay [2] is T1, GSK-3β F93A mutant (Homo sapiens, UniProt P49841, F93A).
T1 construct: made in house; host or cells: HEK-293 (transient transfection, pCMV4; partial purification on DE-52)
T1 sequence (P49841 1-433 isoform P49841-2 F93A): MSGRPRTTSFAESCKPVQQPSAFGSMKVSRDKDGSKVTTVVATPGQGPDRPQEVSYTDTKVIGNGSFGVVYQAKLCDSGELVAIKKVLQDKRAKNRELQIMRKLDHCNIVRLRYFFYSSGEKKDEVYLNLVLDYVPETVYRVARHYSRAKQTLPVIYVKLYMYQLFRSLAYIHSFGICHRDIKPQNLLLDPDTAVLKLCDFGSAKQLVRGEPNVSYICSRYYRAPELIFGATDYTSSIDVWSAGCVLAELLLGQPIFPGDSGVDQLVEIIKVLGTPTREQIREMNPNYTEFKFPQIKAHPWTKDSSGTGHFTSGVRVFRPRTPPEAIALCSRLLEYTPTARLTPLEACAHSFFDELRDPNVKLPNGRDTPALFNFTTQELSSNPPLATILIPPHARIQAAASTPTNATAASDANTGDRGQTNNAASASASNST
The experiment in a line: In vitro kinase assay, inhibition of the F93A mutant. It counts as biochemical. The conditions noted are these: FIGS. 2B, 2C. The method, then:
as §1, §2

In assay [3] the target is GSK-3β (Homo sapiens, UniProt P49841). The procedure:
(§3) The GSK-3β proteins (WT or mutants) were incubated with indicated substrate in a reaction mixture (50 mM Tris-HCl, pH 7.3, 10 mM magnesium acetate, and 0.01% β-mercaptoethanol) together with 100 μM ^32P[γ-ATP] (0.5 μCi/assay) for 15 minutes. Reactions were stopped by spotting on p81 paper (Whatman) washed with phosphoric acid, and counted for radioactivity as previously described [Ilouz et al. (2006) supra]. In assays from cells overexpressing GSK-3 proteins, the activity of the endogenous GSK-3 that was determined in cells transfected with the pCMV4 vector was subtracted from the activity values obtained for WT and mutants.
Purified GSK-3β was subjected to in vitro kinase assays using pIRS-1, p9CREB, and pGS-1 substrate in the presence or absence of L803-mts (100 μM).

Assay [4] has as its system GSK-3. Briefly: Inhibition of cellular GSK-3 in SH-SY5Y cells (Western blot). In kind it is cell-based, human. Particulars: 20 or 40 μM, 5 hours, FIG. 8. The method, then: In an additional assay, human neuroblastoma SH-SY5Y cells, were treated with L803-mts (as set forth in SEQ ID NO:5) or L803F-mts (as set forth in SEQ ID NO:12) (20 or 40 μM) for 5 hours. Cells were collected and lysed in ice-cold buffer G (20 mM Tris pH 7.5, 10 mM β-glycerophosphate, 10% glycerol, 1 mM EGTA, 1 mM EDTA, 50 mM NaF, 5 mM sodium pyrophosphate, 0.5 mM orthovanadate, 1 mM benzamidine, 5 μg/ml leupeptin, 25 μg/ml aprotinin, 5 μg/ml pepstatin, and 0.5% Triton X100). Equal amounts of proteins (30 μg) were subjected to gel electrophoresis, transferred to nitrocellulose membranes, and immunoblotted with the anti-β-catenin antibody or anti-phospho-HSF-1 antibody (heat shock factor-1)(ser 303). FIG. 8 presents the β-catenin levels and phosphorylation levels of HSF-1 (ser 303) as determined by Western blot analysis using specific antibodies, with non-treated cells indicated as control (Con).

Assay [5] deals with pIRS-1. The experiment in a line: In vitro kinase assay of GSK-3β mutants with substrate pIRS-1. It counts as biochemical. The conditions noted are these: mean ± SEM; WT set to 100%. The procedure: (§4) HEK-293 cells were grown in Dulbecco's Modified Eagle's Medium (DMEM), supplemented with 10% fetal calf serum (FCS), 2 mM glutamine, 100 units/ml penicillin, and 100 μg/ml streptomycin. HEK-293 cells were transiently transfected with indicated constructs, using calcium phosphate method as described [Ilouz et al. (2006) supra]. Cells were lysed in ice-cold buffer G (20 mM Tris-HCl, pH 7.5, 10 mM β-glycerophosphate, 10% glycerol, 1 mM EGTA, 1 mM EDTA, 50 mM NaF, 5 mM sodium pyrophosphate, 0.5 mM orthovanadate, 1 mM benzamidine, 10 μg/ml leupeptin, 5 μg/ml aprotinin, 1 μg/ml pepstatin, and 0.5% Triton X100). Cell extracts were centrifuged for 30 minutes at 15,000×g. Supernatants were collected, and equal amounts of proteins were boiled with SDS sample buffer and subjected to gel electrophoresis (7.5-12% polyacrylamide gel), transferred to nitrocellulose membranes, and immunoblotted with indicated antibodies. For partial purification, cells were lysed in buffer H (20 mM Tris, pH 7.3, 1 mM EGTA, 1 mM EDTA, 1 mM orthovanadate, 25 μg/ml leupeptin, 25 μg/ml aprotinin, and 25 μg/ml pepstatin A, 500 nM microcystine LR, and 0.25% Triton X100). The lysates were centrifuged at 15,000×g. The resulting supernatants were passed through DE-52 (Whatman, Maidstone, England) mini-columns that were equilibrated with buffer H. GSK-3β proteins were eluted with the same buffer containing 0.02 M NaCl. Equal amounts of proteins were used for in vitro kinase assays.
as §3
(§5) The GSK-3β mutants were partially purified by ion exchange chromatography, and their abilities to phosphorylate peptide substrates were tested in in vitro kinase assays. The substrates were: pIRS-1, p9CREB, and pGS-1, phosphorylated peptides derived from the insulin receptor substrate-1 (IRS-1), cAMP responsive element binding protein (CREB), and glycogen synthase, respectively.

The subject of assay [6] is p9CREB. Briefly: In vitro kinase assay of GSK-3β mutants with substrate p9CREB. In kind it is biochemical. Particulars: mean ± SEM; WT set to 100%. The procedure:
as §4, §3, §5

In assay [7] the test system is pGS-1. Briefly: In vitro kinase assay of GSK-3β mutants with substrate pGS-1. In kind it is biochemical. Particulars: mean ± SEM; WT set to 100%. The method, then:
as §4, §3, §5

Chain of GSK-3β (P49841 1-433 isoform P49841-2): as the sequence (P49841 1-433 isoform P49841-2 F93A) above, with A93F counted along it

For KEAPPAPPQS(p)P (KEAPPAPPQ[pS]P) [L803], in assay [1], the “inhibition of other GSK-3β mutants” value was “inhibited all other mutants”. Also, the “inhibition of substrate phosphorylation by F93A” value in assay [2] was “did not inhibit”.

“Lys-Glu-Ala-Pro-Pro-Ala-Pro-Pro-Gln-phosphorylated Ser-Pro-Phe [L803F]”: in assay [3] (FIG. 7), the “inhibition of substrate phosphorylation at increasing concentrations, compared to L803” value is listed as “improved activity”.

Take “Myristic-Gly-Lys-Glu-Ala-Pro-Pro-Ala-Pro-Pro-Gln-phosphorylated Ser-Pro-Phe (Myristoyl-GKEAPPAPPQ[pS]PF) [L803F-mts]”: in assay [4], the “phosphorylation levels of HSF-1 (serine 303)” value is “reduced the phosphorylation levels” and the β-catenin levels result is “elevation in β-catenin levels”.

Take “L803-mts: L803 in which myristic acid was attached to its N-terminal; cell permeable variant (Myristoyl-GKEAPPAPPQ[pS]P)”: the “competition with substrates pIRS-1, p9CREB, pGS-1” value in assay [3] (purified GSK-3β, 100 μM, FIG. 2A) is listed as “competes with various substrates”. In assay [1], the “inhibition of other GSK-3β mutants” value is given as “inhibit all other mutants”. Further, the “inhibition of substrate phosphorylation by F93A” value in assay [2] is given as “did not inhibit”.

B1: K94A: GSK-3β mutant, K94 replaced by alanine (protein)
chain: MSGRPRTTSFAESCKPVQQPSAFGSMKVSRDKDGSKVTTVVATPGQGPDRPQEVSYTDTKVIGNGSFGVVYQAKLCDSGELVAIKKVLQDKRFANRELQIMRKLDHCNIVRLRYFFYSSGEKKDEVYLNLVLDYVPETVYRVARHYSRAKQTLPVIYVKLYMYQLFRSLAYIHSFGICHRDIKPQNLLLDPDTAVLKLCDFGSAKQLVRGEPNVSYICSRYYRAPELIFGATDYTSSIDVWSAGCVLAELLLGQPIFPGDSGVDQLVEIIKVLGTPTREQIREMNPNYTEFKFPQIKAHPWTKDSSGTGHFTSGVRVFRPRTPPEAIALCSRLLEYTPTARLTPLEACAHSFFDELRDPNVKLPNGRDTPALFNFTTQELSSNPPLATILIPPHARIQAAASTPTNATAASDANTGDRGQTNNAASASASNST
modifications: GSK-3 beta, K94A mutant
notes: GSK-3β mutant, K94 replaced by alanine
Consider B1, for which, in assay [5], the “Substrate phosphorylation (% of WT GSK-3β), pIRS-1” value is listed as 52 ± 19 % of WTGSK-3β. Moreover, the “Substrate phosphorylation (% of WT GSK-3β), p9CREB” value in assay [6] is reported as 71 ± 4 % of WTGSK-3β. Also, the “Substrate phosphorylation (% of WT GSK-3β), pGS-1” value in assay [7] is reported as 19 ± 14 % of WTGSK-3β.

B2: D90A: GSK-3β mutant, D90 replaced by alanine (protein)
chain: MSGRPRTTSFAESCKPVQQPSAFGSMKVSRDKDGSKVTTVVATPGQGPDRPQEVSYTDTKVIGNGSFGVVYQAKLCDSGELVAIKKVLQAKRFKNRELQIMRKLDHCNIVRLRYFFYSSGEKKDEVYLNLVLDYVPETVYRVARHYSRAKQTLPVIYVKLYMYQLFRSLAYIHSFGICHRDIKPQNLLLDPDTAVLKLCDFGSAKQLVRGEPNVSYICSRYYRAPELIFGATDYTSSIDVWSAGCVLAELLLGQPIFPGDSGVDQLVEIIKVLGTPTREQIREMNPNYTEFKFPQIKAHPWTKDSSGTGHFTSGVRVFRPRTPPEAIALCSRLLEYTPTARLTPLEACAHSFFDELRDPNVKLPNGRDTPALFNFTTQELSSNPPLATILIPPHARIQAAASTPTNATAASDANTGDRGQTNNAASASASNST
modifications: GSK-3 beta, D90A mutant
notes: GSK-3β mutant, D90 replaced by alanine
B2: in assay [5], the “Substrate phosphorylation (% of WT GSK-3β), pIRS-1” value is listed as 88 ± 15 % of WTGSK-3β. In addition, the “Substrate phosphorylation (% of WT GSK-3β), p9CREB” value in assay [6] is on record as 92 ± 21 % of WTGSK-3β. In assay [7], the “Substrate phosphorylation (% of WT GSK-3β), pGS-1” value was 83 ± 2 % of WTGSK-3β.

B3: K91A: GSK-3β mutant, K91 replaced by alanine (protein)
chain: MSGRPRTTSFAESCKPVQQPSAFGSMKVSRDKDGSKVTTVVATPGQGPDRPQEVSYTDTKVIGNGSFGVVYQAKLCDSGELVAIKKVLQDARFKNRELQIMRKLDHCNIVRLRYFFYSSGEKKDEVYLNLVLDYVPETVYRVARHYSRAKQTLPVIYVKLYMYQLFRSLAYIHSFGICHRDIKPQNLLLDPDTAVLKLCDFGSAKQLVRGEPNVSYICSRYYRAPELIFGATDYTSSIDVWSAGCVLAELLLGQPIFPGDSGVDQLVEIIKVLGTPTREQIREMNPNYTEFKFPQIKAHPWTKDSSGTGHFTSGVRVFRPRTPPEAIALCSRLLEYTPTARLTPLEACAHSFFDELRDPNVKLPNGRDTPALFNFTTQELSSNPPLATILIPPHARIQAAASTPTNATAASDANTGDRGQTNNAASASASNST
modifications: GSK-3 beta, K91A mutant
notes: GSK-3β mutant, K91 replaced by alanine
In the case of B3, the “Substrate phosphorylation (% of WT GSK-3β), pIRS-1” value in assay [5] was 140 ± 18 % of WTGSK-3β. Further, the “Substrate phosphorylation (% of WT GSK-3β), p9CREB” value in assay [6] was 161 ± 5 % of WTGSK-3β. Further, the “Substrate phosphorylation (% of WT GSK-3β), pGS-1” value in assay [7] was 119 ± 5 % of WTGSK-3β.

B4: R92A: GSK-3β mutant, R92 replaced by alanine (protein)
chain: MSGRPRTTSFAESCKPVQQPSAFGSMKVSRDKDGSKVTTVVATPGQGPDRPQEVSYTDTKVIGNGSFGVVYQAKLCDSGELVAIKKVLQDKAFKNRELQIMRKLDHCNIVRLRYFFYSSGEKKDEVYLNLVLDYVPETVYRVARHYSRAKQTLPVIYVKLYMYQLFRSLAYIHSFGICHRDIKPQNLLLDPDTAVLKLCDFGSAKQLVRGEPNVSYICSRYYRAPELIFGATDYTSSIDVWSAGCVLAELLLGQPIFPGDSGVDQLVEIIKVLGTPTREQIREMNPNYTEFKFPQIKAHPWTKDSSGTGHFTSGVRVFRPRTPPEAIALCSRLLEYTPTARLTPLEACAHSFFDELRDPNVKLPNGRDTPALFNFTTQELSSNPPLATILIPPHARIQAAASTPTNATAASDANTGDRGQTNNAASASASNST
modifications: GSK-3 beta, R92A mutant
notes: GSK-3β mutant, R92 replaced by alanine
With B4, the “Substrate phosphorylation (% of WT GSK-3β), pIRS-1” value in assay [5] was 60 ± 3 % of WTGSK-3β. Also, in assay [6], the “Substrate phosphorylation (% of WT GSK-3β), p9CREB” value is 49 ± 19 % of WTGSK-3β. Further, in assay [7], the “Substrate phosphorylation (% of WT GSK-3β), pGS-1” value was 41 ± 14 % of WTGSK-3β.
